What is called Kd is a measure of binding affinity in units of concentration.

“And” between values parts separate entries of the source, which are not always exact repeats. Identical values can stand only once.

For this assay, the target named is recombinant B/Phuket/3073/2013 NA ectodomain (tetramer) (UniProt P16199 79-465). Put plainly: BLI.

B1: 2E01 Fab (Fab, V domains shown)
VH: EVQLVQSGAEVKKPGSSVKVSCKASGYTFINHALSWVRQAPGQGLEWVGGIIPIFGLAKYGQKFQDRVTITADESTKTAYMDLRSLRSDDTAVYYCARDTVAVYEDFDWSSPYFFYMDVWGKGTTVTVSS
VL: EIVLTQSPATLSLFPGERATLSCRASQSAGSKSLAWYQHKVGQPPRLLINGASSRATGIPDRFSGSGSGPDFNLTISRLEPEDFAVYYCQRYGTSLVTFGGGTKVEIK
For the molecule B1, the Kd is 441 nM and 150 nM.

The record behind these values is patent US20230077716A1 (published 2023).
